Reference: article PMC11874374

Legend:
[1] = target: histidine-tagged JAM-A (human) (UniProt Q9Y624); assay: non-reducing gel electrophoresis
[2] = target: recombinant human JAM-A (Junctional Adhesion Molecule-A) (human) (UniProt Q9Y624); assay: non-reducing gel electrophoresis

Row | Substance | stoichiometry N [1] | stoichiometry N [2]
1 | histidine-tagged JAM-A (from UniProt Q9Y624 28-299) (natural protein) | 2 | –
2 | recombinant human JAM-A (Junctional Adhesion Molecule-A) (from UniProt Q9Y624 28-299) (natural protein) | – | 3
